Source: patent publication US20230312758A1, “BISPECIFIC ANTIBODY AGAINST CD3 AND CD20 IN COMBINATION THERAPY FOR TREATING FOLLICULAR LYMPHOMA” (GENMAB A/S, priority 2020, published 2023)

Key:
follicular lymphoma = conditions: double-refractory cases; cited from earlier work
T cells = test: T-cell activation with immobilized anti-CD3 in presence or absence of lenalidomide; type: cell-based; conditions: 5 or 50 μM lenalidomide, CD3 crosslinking, 3 days; compared to no lenalidomide
Description: T cells were pre-incubated with assay medium or lenalidomide in the absence or presence of CD3 crosslinking by immobilized anti-CD3 for 3 days (as indicated on the x-axes), after which upregulation of CD69, CD25, PD-1 and LAMP-1 on CD4^+ and CD8^+ T cells was determined by flow cytometry. Data shown are geomean fluorescence intensities (FI) for four donors (each circle represents one condition for one donor). Pre-incubation conditions are shown on the x-axis.
(§1) This experiment was performed to determine the impact of lenalidomide on Duobody-CD3xCD20-induced T-cell activation and T-cell-mediated cytotoxicity.
(§2) Briefly, T cells were activated with immobilized anti-CD3 in the presence (5 or 50 μM) or absence of lenalidomide for 3 days. […] T cells that were activated in the presence or absence of lenalidomide were subsequently tested for their cytotoxic capacity in response to epcoritamab.

CD20 = biological target: T1, CD20 (Homo sapiens, UniProt P11836); conditions: rituximab versus IgG1-CD20; bind to a different epitope; cited from earlier work
T1 sequence (P11836 1-297): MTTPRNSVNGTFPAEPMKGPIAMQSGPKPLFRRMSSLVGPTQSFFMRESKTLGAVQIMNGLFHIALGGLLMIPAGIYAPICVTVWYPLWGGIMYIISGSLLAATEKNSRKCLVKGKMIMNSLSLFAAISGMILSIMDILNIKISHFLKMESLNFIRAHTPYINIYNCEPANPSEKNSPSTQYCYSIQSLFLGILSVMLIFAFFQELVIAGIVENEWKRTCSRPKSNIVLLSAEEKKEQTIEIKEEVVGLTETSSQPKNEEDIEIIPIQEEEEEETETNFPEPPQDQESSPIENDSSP

[1] = tested on: CD20-expressing Daudi cells; test: DuoBody-CD3xCD20-induced T-cell-mediated cytotoxicity assay; type: cell-based; conditions: T cells pre-treated with lenalidomide and anti-CD3; E:T ratio 2:1
Description: T cells were incubated with (5 or 50 μM) or without lenalidomide in the absence or presence of immobilized anti-CD3 for 3 days. T cells were then used in a cytotoxicity assay with DuoBody-CD3xCD20 or DuoBody-CD3xctrl (containing a CD3 arm and a non-binding control arm) and CD20-expressing Daudi cells as target cells (E:T ratio 2:1). Data shown are average percentages cytotoxicity ±SD of duplicates, normalized to medium control (no antibody, no lenalidomide).
as §1, §2

R/R follicular lymphoma = test: Phase 1b study of epcoritamab with rituximab and lenalidomide (R^2); type: in vivo, human; conditions: preliminary data
Description: The trial is conducted in 2 parts: dose escalation (Part 1) and expansion (Part 2). Subjects participate in only one part. Both parts consist of a screening period, a treatment period, a safety follow-up period, and a survival follow-up period.
The Part 1 dose escalation assesses the initial safety, tolerability, and clinical activity of epcoritamab in combination with R^2. Epcoritamab is initially be administered in combination with R^2 in a 3-subject cohort. DLTs are evaluated during the first 28 days. […]
In Part 2, epcoritamab is administered (with the dosing regimen determined in the dose escalation part) in combination with R^2. […]
Disease response is assessed according to both Lugano criteria (described in Cheson et al., J Clin Oncol 2014; 32:3059-68 (see, in particular, Table 3 in Cheson et al., 2014) and LYRIC (Table 8) to inform decisions on continuation of treatment. […]
Safety is assessed by measuring adverse events, laboratory test results, ECGs, vital sign measurements, physical examination findings, and ECOG performance status. Also assessed are immune effector cell-associated neurotoxicity syndrome (e.g., as described by Lee et al., Biol BloodMarrow Transplant 2019; 25:625-638), constitutional symptoms (B symptoms), tumor flare reaction, and survival. […]

R/R B-NHL = test: epcoritamab monotherapy clinical trial (NCT03625037); type: in vivo, human; conditions: R/R B-NHL patients, preliminary data
Description: Epcoritamab as monotherapy is currently in a clinical trial for the treatment of R/R B-NHL (ClinicalTrials.gov Identifier: NCT03625037).

[2] = tested on: primary DLBCL and follicular lymphoma patient biopsies; conditions: cited from earlier work
[3] = tested on: CD20-expressing Raji-luc tumor cells; conditions: NOD-SCID mice injected with Raji-luc tumor cells and PBMCs; even in presence of excess IgG1-RTX-FEAR; cited from earlier work

Molecule: CC[C@H](Nc1ncnc2[nH]cnc12)c1nc2cccc(F)c2c(=O)n1-c1ccccc1 [idelalisib]
- 1-year PFS (follicular lymphoma): 43%
- toxicities (follicular lymphoma): several toxicities leading to treatment discontinuation

Molecule: Nc1cccc2c1CN(C1CCC(=O)NC1=O)C2=O (centres unmarked) [lenalidomide, 3-(4-Amino-1-oxo-1,3-dihydro-2H-isoindol-2-yl) piperidine-2,6-dione]
- T-cell activation (CD69, CD25 upregulation, release of granzyme B and IFNγ) (T cells): increased T-cell activation

Molecule: IgG1-CD20: antibody of which the CD20 arm of epcoritamab is derived
- competition for CD20 binding (CD20): compete for CD20 binding

Molecule: epcoritamab: IgG1 bispecific CD3xCD20 antibody; heavy/light chain pairs SEQ ID NOs: 24/25 and 26/27; CAS 2134641-34-0
- cytotoxicity (dose response) [1]: Higher maximum percent cytotoxicity and higher activity at lower epcoritamab concentrations
- incidence of CRS compared with single-agent epcoritamab (R/R follicular lymphoma): relatively lower incidence of CRS with the combination
- tolerated dose (R/R B-NHL; including 60 mg): at least 48 mg
- dose-limiting toxicities (R/R B-NHL): no dose-limiting toxicities reported
- tumor cell kill ([2]; biopsy taken 2 weeks after administering the anti-CD20 antibody): up to 40%
- T-cell-mediated cytotoxicity [2]: induced T-cell-mediated cytotoxicity
- tumor growth [3]: effectively reduce tumor growth
